B1: CPEB3 Ribozyme (parent)
chain: UAACAGGGGGCCACAGCAGAAGCGUUCACGUCGCAGCCCCUGUCAGAUUCUGGUGAAUCUGCGAAUUCUGCUGUAUAUCUC

Variants of: B1
Experiment: self-cleavage, relative activity (ratio to wild type); higher = more cleavage; in vitro, sequencing
Summary of the method: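 Barcoded CPEB3 ribozyme mutants, produced by rounds of error-prone PCR, self-cleaved while being transcribed with T7 RNA polymerase for 5 hours at 37°C and during a subsequent 15 min DNase I step before EDTA was added. Sequencing of template-switched cDNA on Illumina gave cleaved and total reads, and DNA sequencing assigned barcodes to variants. Each variant's relative activity is its cleaved/total read fraction divided by the unmutated ribozyme's fraction, averaged across three batches. A variant needed a minimum of 5 reads.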

Row | Variant | self-cleavage
1 | UAACAGGGGGCCACAGCAGAAGCGUUCACGCCGAAGCCCCUGUCAGAUUCUGGUGAAUCUGCGAAUUCUGCUGUAUAUCUC | 0.15
2 | UAACAGGGGGCCACAGCAGAAGCGUUCACGCCGUAGCCCCUGUCAGAUUCUGGUGAAUCUGCGAAUUCUGCUGUAUAUCUC | 0.24
3 | UAACAGGGGGCCACAGCAGAAGCGUUCACGACGCAGCCCCUGUCAGAUUCUGGUGAAUCUGCGAAUUCUGCUGUAUACCUC | 0.46
4 | UAACAGGGGGCCACAGCAGAAGCGUUCACGACGCAGCCCCUGUCAGAUUCUGGUGAAUCUGCGAAUUCUGCUGUAUAACUC | 0.41
5 | UAACAGGGGGCCACAGCAGAAGCGUUCACGACGCAGCCCCUGUCAGAUUCUGGUGAAUCUGCGAAUUCUGCUGUAUAGCUC | 0.46
6 | UAACAGGGGGCCACAGCAGAAGCGUUCACGACGCAGCCCCUGUCAGAUUCCGGUGAAUCUGCGAAUUCUGCUGUAUAUCUC | 0.46
7 | UAACAGGGGGCCACAGCAGAAGCGUUCACGACGCAGCCCCUGUCAGAUUCGGGUGAAUCUGCGAAUUCUGCUGUAUAUCUC | 0.33
8 | UAACAGGGGGCCACAGCAGAAGCGUUCACGACGCAGCCCCUGUCAGAUUCUGGUGAAUCUGCGAACUCUGCUGUAUAUCUC | 0.26
9 | UAACAGGGGGCCACAGCAGAAGCGUUCACGCCGCAGCCCCUGUCAGAUUCUGGUGAAUCUGCGCAUUCUGCUGUAUAUCUC | 0.14
10 | UAACAGGGGGCCACAGCAGAAGCGUUCACGCCGCAGCCCCUGUCAGAUUCUGGUGAAUCUGCGGAUUCUGCUGUAUAUCUC | 0.64
11 | UAACAGGGGGCCACAGCAGAAGCGUUCACGCCGCAGCCCCUGUCAGAUUCUGGUGAAUCUGCGUAUUCUGCUGUAUAUCUC | 0.31
12 | UAACAGGGGGCCACAGCAGAAGCGUUCACGACGCAGCCCCUGUCAGAUUCUGGUGAAUCGGCGAAUUCUGCUGUAUAUCUC | 0.2
13 | UAACAGGGGGCCACAGCAGAAGCGUUCACGACGCAGCCCCUGUCAGAUUCUGGUGAAUCCGCGAAUUCUGCUGUAUAUCUC | 0.25
14 | UAACAGGGGGCCACAGCAGAAGCGUUCACGACGCAGCCCCUGUCAGAUUCUGGUGAAUCAGCGAAUUCUGCUGUAUAUCUC | 0.32
15 | UAACAGGGGGCCACAGCAGAAGCGUUCACGACGCAGCCCCUGUCAGAUUCUGGUGAAUCUGCGAAUCCUGCUGUAUAUCUC | 0.2
16 | UAACAGGGGGCCACAGCAGAAGCGUUCACGACGCAGCCCCUGUCAGAUUCUGGUGAAUCUGCGAAUACUGCUGUAUAUCUC | 0.34
17 | UAACAGGGGGCCACAGCAGAAGCGUUCACGACGCAGCCCCUGUCAGAUUCUGGUGAAUCUGCGAAUUCAGCUGUAUAUCUC | 0.29

Row | Variant | self-cleavage
18 | UAACAGGGGGCCACAGCAGAAGCGUUCACGACGCAGCCCCUGUCAGAUUCUGGUGAAUCUGCGAAUUCCGCUGUAUAUCUC | 0.3
19 | UAACAGGGGGCCACAGCAGAAGCGUUCACGACGCAGCCCCUGUCAGAUUCUGGUGAAUCUGCGAAUUCGGCUGUAUAUCUC | 0.27
20 | UAACAGGGGGCCACAGCAGAAGCGUUCACGACGCAGCCCCUGUCAGAUUCUGGUGAACCUGCGAAUUCUGCUGUAUAUCUC | 0.36
21 | UAACAGGGGGCCACAGCAGAAGCGUUCACGCCGCAGCCCCUGUCAGAUUCUGGUGUAUCUGCGAAUUCUGCUGUAUAUCUC | 0.47
22 | UAACAGGGGGCCACAGCAGAAGCGUUCACGCCGCAGCCCCUGUCAGAUUCUGGUGGAUCUGCGAAUUCUGCUGUAUAUCUC | 0.67
23 | UAACAGGGGGCCACAGCAGAAGCGUUCACGACGCAGCCCCUGUCAGAUUCUGGUGAAUCUGCGAAUUCUGCUGGAUAUCUC | 0.84
24 | UAACAGGGGGCCACAGCAGAAGCGUUCACGACGCAGCCCCUGUCAGAUUCUGGUGAAUCUGCGAAUUCUGCUGCAUAUCUC | 0.77
25 | UAACAGGGGGCCACAGCAGAAGCGUUCACGACGCAGCCCCUGUCAGAUUCUGGUGAAUCUGCGAAUUCUGCUGAAUAUCUC | 0.74
26 | UAACAGGGGGCCACAGCAGAAGCGUUCACGACGCAGCCCCUGUCAGAUUCUGGGGAAUCUGCGAAUUCUGCUGUAUAUCUC | 0.55
27 | UAACAGGGGGCCACAGCAGAAGCGUUCACGACGCAGCCCCUGUCAGAUUCUGGCGAAUCUGCGAAUUCUGCUGUAUAUCUC | 0.5
28 | UAACAGGGGGCCACAGCAGAAGCGUUCACGACGCAGCCCCUGUCAGAUUCUGGAGAAUCUGCGAAUUCUGCUGUAUAUCUC | 0.55
29 | UAACAGGGGGCCACAGCAGAAGCGUUCACGCCGCAGCCCCUGUCCGAUUCUGGUGAAUCUGCGAAUUCUGCUGUAUAUCUC | 0.22
30 | UAACAGGGGGCCACAGCAGAAGCGUUCACGCCGCAGCCCCUGUCUGAUUCUGGUGAAUCUGCGAAUUCUGCUGUAUAUCUC | 0.32
31 | UAACAGGGGGCCACAGCAGAAGCGUUCACGCCGCAGCCCCUGUCGGAUUCUGGUGAAUCUGCGAAUUCUGCUGUAUAUCUC | 0.52
32 | UAACAGGGGGCCACAGCAGAAGCGUUCACGCAGCAGCCCCUGUCAGAUUCUGGUGAAUCUGCGAAUUCUGCUGUAUAUCUC | 0.31
33 | UAACAGGGGGCCACAGCAGAAGCGUUCACGCUGCAGCCCCUGUCAGAUUCUGGUGAAUCUGCGAAUUCUGCUGUAUAUCUC | 0.22
34 | UAACAGGGGGCCACAGCAGAAGCGUUCACGACGCAGCCCCUGUCAGAUUCUGGUGAAUCUGCGAAUUCUGCUGUACAUCUC | 0.48

Reference: the RNAGym collection of RNA variant scans (doi:10.1093/nar/gkz1192)
